From patent US20260242478A1 (published 2026)
Where no end group is shown, it is not given here.

B1: Phage-1345 (peptide)
peptide: SCSAGAHYPWPQCF
notes: Clonal phage of the Peptide-92 library, tested as crude supernatant; not shown: fused to the pIII filament of the bacteriophage
B2: Phage-1356 (peptide)
peptide: LCSAGAMYSWPTCL
notes: as for B1
B3: Phage-1346 (peptide)
peptide: TCSAGATYEWPRCL
notes: as for B1
B4: Phage-1348 (peptide)
peptide: SCSAGAAYYWPWCL
notes: as for B1
B5: Phage-1353 (peptide)
peptide: LCKPGVPYKWPTCL
notes: as for B1
B6: Phage-1350 (peptide)
peptide: TCAAGATYLWPTCL
notes: as for B1
B7: Phage-1349 (peptide)
peptide: TCSAGATWAWPLCF
notes: as for B1
B8: Phage-1359 (peptide)
peptide: MCSAGAMYKWPLCL
notes: as for B1
B9: Phage-1351 (peptide)
peptide: TCAAGAHYPWPACL
notes: as for B1
B10: Phage-1347 (peptide)
peptide: TCSAGAHYPWPICL
notes: as for B1
B11: Phage-1355 (peptide)
peptide: LCSAGAMWPWPTCL
notes: as for B1
B12: Phage-1358 (peptide)
peptide: TCAAGAMWAWPVCL
notes: as for B1
B13: Phage-3906 (peptide)
peptide: SDALCRPHWMCAGF
notes: tested as crude clonal phage supernatant
B14: Phage-3904 (peptide)
peptide: GYHLCIPEWMCSGL
notes: as for B13
B15: Phage-3910 (peptide)
peptide: VIPLCRPSWMCAAY
notes: as for B13
B16: Phage-3902 (peptide)
peptide: GHMYCSPLWMCEGF
notes: as for B13
B17: Phage-3903 (peptide)
peptide: LGPMCRPNWMCVGL
notes: as for B13
B18: Phage-3907 (peptide)
peptide: SLERCEPPWMCFGF
notes: as for B13
B19: Phage-3908 (peptide)
peptide: TERMCSPSWMCDGF
notes: as for B13
B20: Phage-3909 (peptide)
peptide: VMAVCQPEWMCSGM
notes: as for B13
B21: Phage-3901 (peptide)
peptide: YVMMCVPQWMCTAK
notes: as for B13
B22: Phage-3905 (peptide)
peptide: ADVLCRPHWMCAGF
notes: as for B13
B23: Peptide-270 (peptide)
peptide: ESRLCVPAWMCAGF
notes: From the Peptide-180 optimisation phage library
B24: Peptide-277 (peptide)
peptide: VVIKCKPEWMCSGF
notes: as for B23
B25: Peptide-271 (peptide)
peptide: EDILCKPKWMCEGF
notes: as for B23
B26: Peptide-267 (peptide)
peptide: FTNYCVPSWMCTGF
notes: as for B23
B27: Peptide-263 (peptide)
peptide: AVKACIPEWMCIGF
notes: as for B23
B28: Peptide-274 (peptide)
peptide: ITPVCKPLWMCSGL
notes: as for B23
B29: Peptide-268 (peptide)
peptide: VEKVCKPVWMCVGF
notes: as for B23

Target: Ab-15
Assay: competition ELISA: peptide titrated against 1 nM Ab-15; competitor plate-bound CD28

Point of comparison: KDWCPRDLWVHCFA (cysteine pairing not given here; also: biotinylated, site not given here, CD28 peptide mask) [Peptide-62], IC50 190 nM. Against it:
- RDWCPRDLWVHCFA (cysteine pairing not given here; also: biotinylated, site not given here, CD28 peptide mask) [Peptide-53] — within 1.5-fold, 170 nM
- QDWCPRDLWVHCFA (cysteine pairing not given here; also: biotinylated, site not given here, CD28 peptide mask) [Peptide-56] — 1.7-fold higher, 330 nM
- EDWCPRDLWVHCFA (cysteine pairing not given here; also: biotinylated, site not given here, CD28 peptide mask) [Peptide-57] — 1.6-fold higher, 300 nM
- TDWCPRDLWVHCFA (cysteine pairing not given here; also: biotinylated, site not given here, CD28 peptide mask) [Peptide-66] — 3.1-fold higher, 590 nM

Target: Ab-15
Assay: BLI (Octet): sensor loaded with 200 nM biotinylated peptide, 100 nM Ab-15;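 further: binding association and dissociation tracked in real time, fitted to a 1:1 binding model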

Point of comparison: KDWCPRDLWVHCFA (cysteine pairing not given here; also: biotinylated, site not given here, CD28 peptide mask) [Peptide-62], Octet signal 1.13. Against it:
- RDWCPRDLWVHCFA (cysteine pairing not given here; also: biotinylated, site not given here, CD28 peptide mask) [Peptide-53] — higher, 1.22
- QDWCPRDLWVHCFA (cysteine pairing not given here; also: biotinylated, site not given here, CD28 peptide mask) [Peptide-56] — lower, 1.12
- EDWCPRDLWVHCFA (cysteine pairing not given here; also: biotinylated, site not given here, CD28 peptide mask) [Peptide-57] — lower, 1.02
- TDWCPRDLWVHCFA (cysteine pairing not given here; also: biotinylated, site not given here, CD28 peptide mask) [Peptide-66] — higher, 1.34

Point of comparison: KDWCPRDLWVHCFA (cysteine pairing not given here; also: biotinylated, site not given here, CD28 peptide mask) [Peptide-62], t1/2 4 min. Against it:
- RDWCPRDLWVHCFA (cysteine pairing not given here; also: biotinylated, site not given here, CD28 peptide mask) [Peptide-53] — within 1.5-fold, 4.9 min
- QDWCPRDLWVHCFA (cysteine pairing not given here; also: biotinylated, site not given here, CD28 peptide mask) [Peptide-56] — within 1.5-fold, 3.6 min
- EDWCPRDLWVHCFA (cysteine pairing not given here; also: biotinylated, site not given here, CD28 peptide mask) [Peptide-57] — within 1.5-fold, 3 min
- TDWCPRDLWVHCFA (cysteine pairing not given here; also: biotinylated, site not given here, CD28 peptide mask) [Peptide-66] — within 1.5-fold, 4.2 min

Target: T1, Anti-CD28 Fab (SEQ ID NOs: 696, 697)
T1 construct: In the phage ELISA the Fab was biotinylated and captured on neutravidin coated plates
Assay: phage binding ELISA on captured anti-CD28 Fab; wells pre-incubated with CD28 antigen as competitor

Point of comparison: B8, “Anti-CD28 Fab signal in the presence of CD28” value 0.05. Against it:
- B1 — higher, 0.06
- B2 — higher, 0.12
- B3 — higher, 0.06
- B4 — higher, 0.09
- B5 — higher, 0.07
- B6 — higher, 0.06
- B7 — higher, 0.09
- B9 — higher, 0.07
- B10 — higher, 0.07
- B11 — higher, 0.08
- B12 — higher, 0.09

Target: T2, PSMA Fab (006 PSMA Fab)
T2 construct: also called Anti-PSMA Fab; anti-PSMA Fab
Assay: phage ELISA; biotinylated PSMA Fab on neutravidin plate, clonal phage supernatant, anti-M13 HRP detection;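 further: wells preincubated with PSMA antigen in blocking buffer or with blocking buffer only before clonal phage were added for a short incubation, then bound phage detected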

Point of comparison: B16, “Phage binding ELISA signal, Anti-PSMA Fab” value 1.06. Against it:
- B13 — the same, 1.06
- B14 — the same, 1.06
- B15 — lower, 1.04
- B17 — the same, 1.06
- B18 — the same, 1.06
- B19 — lower, 1.05
- B20 — lower, 1.05
- B21 — the same, 1.06
- B22 — the same, 1.06

Target: T1, Anti-CD28 Fab (SEQ ID NOs: 696, 697)
Assay: phage binding ELISA; biotinylated anti-CD28 Fab on neutravidin plate, clonal phage supernatant, anti-M13 HRP

Point of comparison: B9, “Anti-CD28 Fab (SEQ ID NOs: 696, 697) signal” value 1.92. Against it:
- B1 — lower, 1.16
- B2 — higher, 2.39
- B3 — lower, 1.84
- B4 — lower, 1.9
- B6 — lower, 1.68
- B7 — higher, 2.31
- B8 — higher, 2.32
- B10 — lower, 1.78
- B11 — higher, 2.39
- B12 — higher, 2.32

Target: T2, PSMA Fab (006 PSMA Fab)
Assay: phage ELISA; PSMA Fab on plate pre-incubated with PSMA antigen as competitor, anti-M13 HRP detection;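 further: crude clonal phage supernatants added to Fab-coated wells still holding PSMA antigen in blocking buffer, with bound phage as read-out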

Point of comparison: B15, “Phage binding ELISA signal, Anti-PSMA Fab in presence of PSMA antigen” value 0.116. Against it:
- B13 — lower, 0.061
- B14 — lower, 0.0923
- B16 — higher, 0.131
- B17 — lower, 0.0797
- B18 — lower, 0.0697
- B19 — lower, 0.0693
- B20 — lower, 0.0731
- B21 — lower, 0.069
- B22 — lower, 0.0581

Target: T3, PSMA Fab
T3 construct: also called 006 PSMA Fab; anti-PSMA Fab
Assay: BLI (Octet); PSMA Fab on sensor-loaded biotinylated peptide, 1:1 model

Point of comparison: B27, “Off rate t1/2” value 2.3 min. Against it:
- B23 — 1.6-fold lower, 1.4 min
- B24 — within 1.5-fold, 1.9 min
- B25 — within 1.5-fold, 3.3 min
- B26 — within 1.5-fold, 1.9 min
- B28 — within 1.5-fold, 3.3 min
- B29 — within 1.5-fold, 3 min

Target: T3, PSMA Fab
Assay: competition ELISA; peptide 0-100 µM with 0.3 nM PSMA Fab on plate-captured biotinylated PSMA

Point of comparison: B28, IC50 330 nM. Against it:
- B23 — 2.1-fold higher, 700 nM
- B25 — within 1.5-fold, 300 nM
- B27 — 1.9-fold higher, 620 nM
- B29 — within 1.5-fold, 250 nM

Target: T3, PSMA Fab
Assay: binding ELISA; PSMA Fab titrated on plate-captured biotinylated peptide

Point of comparison: B28, EC50 4 nM. Against it:
- B23 — 4.3-fold higher, 17.3 nM
- B25 — within 1.5-fold, 5.7 nM
- B27 — 2.1-fold higher, 8.4 nM
- B29 — within 1.5-fold, 5.1 nM

Target: Ab-15
Assay: binding ELISA: biotinylated peptide on neutravidin plate, Ab-15 titrated

Point of comparison: TDWCPRDLWVHCFA (cysteine pairing not given here; also: biotinylated, site not given here, CD28 peptide mask) [Peptide-66], EC50 24 nM. Against it:
- RDWCPRDLWVHCFA (cysteine pairing not given here; also: biotinylated, site not given here, CD28 peptide mask) [Peptide-53] — 1.6-fold lower, 14.6 nM
- KDWCPRDLWVHCFA (cysteine pairing not given here; also: biotinylated, site not given here, CD28 peptide mask) [Peptide-62] — within 1.5-fold, 19.7 nM
- QDWCPRDLWVHCFA (cysteine pairing not given here; also: biotinylated, site not given here, CD28 peptide mask) [Peptide-56] — within 1.5-fold, 25.7 nM
- EDWCPRDLWVHCFA (cysteine pairing not given here; also: biotinylated, site not given here, CD28 peptide mask) [Peptide-57] — within 1.5-fold, 32.8 nM

Target: Ab-15
Assay: BLI (Octet): biotinylated peptide on sensor, Ab-15 titrated, 1:1 model

Point of comparison: EDWCPRDLWVHCFA (cysteine pairing not given here; also: biotinylated, site not given here, CD28 peptide mask) [Peptide-57], Kd 23.2 nM. Against it:
- RDWCPRDLWVHCFA (cysteine pairing not given here; also: biotinylated, site not given here, CD28 peptide mask) [Peptide-53] — within 1.5-fold, 20.3 nM
- KDWCPRDLWVHCFA (cysteine pairing not given here; also: biotinylated, site not given here, CD28 peptide mask) [Peptide-62] — within 1.5-fold, 26.1 nM
- QDWCPRDLWVHCFA (cysteine pairing not given here; also: biotinylated, site not given here, CD28 peptide mask) [Peptide-56] — within 1.5-fold, 24.6 nM
- TDWCPRDLWVHCFA (cysteine pairing not given here; also: biotinylated, site not given here, CD28 peptide mask) [Peptide-66] — within 1.5-fold, 25.5 nM

Point of comparison: QDWCPRDLWVHCFA (cysteine pairing not given here; also: biotinylated, site not given here, CD28 peptide mask) [Peptide-56], t1/2 4.2 min. Against it:
- RDWCPRDLWVHCFA (cysteine pairing not given here; also: biotinylated, site not given here, CD28 peptide mask) [Peptide-53] — within 1.5-fold, 6.2 min
- KDWCPRDLWVHCFA (cysteine pairing not given here; also: biotinylated, site not given here, CD28 peptide mask) [Peptide-62] — within 1.5-fold, 4.5 min
- EDWCPRDLWVHCFA (cysteine pairing not given here; also: biotinylated, site not given here, CD28 peptide mask) [Peptide-57] — within 1.5-fold, 3.1 min
- TDWCPRDLWVHCFA (cysteine pairing not given here; also: biotinylated, site not given here, CD28 peptide mask) [Peptide-66] — within 1.5-fold, 4.7 min
